The text below walks through data of US8487074B2, “Modulation of lipid rafts” (Lantmannen AS-Faktor AB, priority 2006, dated 2013).

No end group written: not given here.

For data set [1], the system named is injured skin and cartilage. More on the design: species or system rats. The following applies: rat, in vivo. The protocol:
In an experiment it was investigated whether the administration of AF-16 affected the healing process of injured skin and cartilage, using freeze-thaw injury to a rat ear as a model system. […] In addition 1 mg AF-16 was injected intramuscularly just after the implantation of the pump. Thereafter, a freeze-thaw injury was applied by compressing the ear in a standardized manner with the aid of a Pean's forceps, chilled in liquid nitrogen. For comparison, additional rats were treated in the same way in parallel were treated with the vehicle, PBS with 15% ethanol, only and no peptide. Additionally, normal rats, which had not been exposed to any freeze-thaw injury, were used for reference as were non-injured rats having pumps with AF-16 implanted. […] On either side bordering the injured elastic cartilage in the ear there was a formation of new hyaline cartilage. […] The amount of collagen and density of inflammatory cells were reduced in the AF-16 treated animals as compared to those having had the vehicle.

In a further data set the test system is aquaporins. Briefly: Effects of AF treatment on aquaporins after trauma, infections and other pathological conditions. It counts as in vivo. To be noted: topical or systemic administration. From the text:
Aquaporins are a family of proteins, integrated in membranes, and expressed in all living cells and organisms. The major function of aquaporins is to control the water flow into and out of cells, i.e. between the cytoplasm of cells and the extracellular environment. Each type of cells, tissues and organs have their specific set of aquaporins with characteristic distribution patterns. Functional aquaporins are preferentially clustered in lipid rafts and caveolae, while subunits and dissociated aquaporin complexes may be demonstrable outside these membrane constituents. […] Further, at brain and spinal cord infections, e.g. encephalitis, the patterns of distribution and intensity of these two aquaporins became altered, as disclosed be immunohistochemistry and immunochemistry. The interaction between e.g. neurons and supporting glial cells and vascular structures seems to be intricate and complex, but important.
Experiments are performed mapping in more detail regarding effects of trauma, infections and other pathological conditions. […] Effects are characterized quantitatively and qualitatively and the importance of effects on the structure and functions of the different types of aquaporins in a body. […]

Another data set has as its system pulmonary hypertension. Briefly: Crotaline (monocrotaline) induced pulmonary hypertension in rats. To be noted: crotaline 60 mg/kg ip; minipump infusion; assessed 18 days later; vs untreated normal controls. The format is in vivo, Sprague-Dawley rats. On the procedure:
Adolescent and adult rats, with a body weight of 150-300 g and of either sex, were treated experimentally to induce pulmonary hypertension and reactive alterations in the lungs. Pulmonary hypertension (PH) is defined as having a pressure in excess of the normal pulmonary artery pressure, […], usually in the range of 30-40 mm Hg. It is a progressive disease with high morbidity and mortality in humans as well as in animals. Experimental models enable investigation of the initiating mechanisms. A single treatment of rats with monocrotaline is an established approach for the induction of PH (Cf. Mathew et al., 2004). […]
The rats were anaesthetized 18 days later, and their body weights determined. […] The pressure in the right heart ventricle was assessed with the aid of a fiber optic miniature transducer system (Samba System 3200 & Samba Preclin 420 sensor; Samba Sensors AB, V. Frolunda, Sweden), inserted through the right jugular vein. […] In contrast, rats treated with crotaline (single ip injection; 60 mg/kg body weight; crotaline dissolved in PBS) and the vehicle delivered by a Alzet pump had for 18 days an pulmonary artery pressure in excess of 30 mm Hg and a hypertrophy of the right ventricle, as assessed by comparing its wet weight to that of the left ventricle and with the weight of corresponding structures of non-treated, normal rats. […]

The test system of a further data set is injured skin and periost. Put plainly: Healing of calvarial skin wound and periost in rabbits. The following applies: vs vehicle. The format is in vivo, New Zeeland albino rabbits. The protocol:
Adult rabbits were investigated with regard to whether the administration of AF-16 affected the healing process of injured skin and periost. […] The rabbits had either AF-16 or the vehicle injected intravenously in a marginal ear vein. The dose of AF-16 was up to 5 mg per kg body weight, twice daily. The calvarial skin wound and the injection sites in the ear were investigated macroscopically after a week. Then, specimens were dissected from both areas and prepared by fixation, embedding, sectioning and staining for light microscopic examination.

Take “VCHSKTRSNPENNVGL [AF-16, VCHSKTRSNPENNVGL]”: the “structures in the ear of non-injured rats” value in data set [1] was “did not alter the structures in the ear”.

B1: AF: antisecretory factor, a 41 kDa protein comprising 382 amino acids; the term also covers homologues, derivatives and fragments (protein, listed as Homo sapiens)
chain: MVLESTMVCVDNSEYMRNGDFLPTRLQAQQDAVNIVCHSKTRSNPENNVGLITLANDCEVLTTLTPDTGRILSKLHTVQPKGKITFCTGIRVAHLALKHRQGKNHKMRIIAFVGSPVEDNEKDLVKLAKRLKKEKVNVDIINFGEEEVNTEKLTAFVNTLNGKDGTGSHLVTVPPGPSLADALISSPILAGEGGAMLGLGASDFEFGVDPSADPELALALRVSMEEQRHAGGGARRAARASAAEAGIATTGTEDSDDALLKMTISQQEFGRTGLPDLSSMTEEEQIAYAMQMSLQGAEFGQAESADIDASSAMDTSEPAKEEDDYDVMQDPEFLQSVLENLPGVDPNNEAIRNAMGSLPPRPPRTARRTRRRKTRSETGGKG
On to B1, for which the “prevalence, distribution and activity of aquaporins and ion channel complexes” value in the data set on aquaporins is “great impact in monitoring and even normalizing”. Further, the “general appearance and body weight” value with pulmonary hypertension was “appeared healthy and had almost the same weight and appearance as the controls”. The frequency of caveolae result in the data set on injured skin and periost is recorded as “more normal”.
